Measurements published in patent US20160177392A1.

Biological target: soybean alpha-SNAP from the Rhg1 locus, full length, with C-terminal six-histidine tag (soybean (Glycine max))
Assay: gel filtration (Superdex 75); HgSLP-1 alone eluted at fraction 23, albumin standard (67 kDa) at fraction 12, chymotrypsinogen A (25 kDa) at fraction 30

Heterodera glycines SNARE-like protein 1 (HgSLP-1), full length, expressed in E. coli
elution fraction of HgSLP-1 in gel filtration: 15
